Measured values as given in patent US7057015B1, “Hormone receptor functional dimers and methods of their use” (The Salk Institute for Biological Studies, priority 1999, dated 2006).
Values belong to the molecule of their own block, whether it stands above or below them.

Assays:
[1] = system: E4-luc reporter plasmid in 293 cells; experiment: Transient transfection luciferase transactivation assay with E4-luc reporter; format: cell-based, human
Description: For quantitative transactivation analysis, transfections were performed in triplicate in 24-well plates by calcium-phosphate co-precipitation with 100 ng of an individual receptor, the reporter plasmid E4-luc, and pCH110 (SV40-β-galactosidase) as an internal control. Briefly, the reporter plasmid, E4-luc, was constructed of 4-tandem EcREs inserted upstream of a thymidine kinase gene minimal promoter directing luciferase expression. […] 1 μM ligand was added at the time of transfection, and the cells were harvested for luciferase assay 40 hours later. Harvested cell extracts were split, and one part was analyzed in a luminometer for luciferase activity and the other part was analyzed for β-galactosidase activity using an orthonitrophenyl galactoside assay by standard methods. Luciferase levels were normalized to β-galactosidase values to correct for slight differences in transfection efficiency.

EcRE probe = experiment: Gel mobility shift analysis of EcRE probe binding by FDs; conditions: 1 μM murA vs vehicle, extracts of transfected 293 cells
Description: Preparation of the invention fusion protein FDs for gel shift analysis by transient transfection into 293 cells was as follows: 300 ng of individual receptor plasmids and 100 ng pCH110 internal control plasmid were cotransfected into 293 cells at 60% density in Costar 6-well plates. One well of each group was treated with 1 μM murA as ligand at the time of transfection. 40 hours later, extracts of transfected 293 cells were made by scraping the cells from a well into a low volume of phosphate buffered saline, pelleting the cells, resuspending them in 200 μl 5×gel shift buffer (Yao et al., supra 1992), and sonicating with a Kontes cell disrupter for three 10-sec. bursts at output level 30. The extracts were then centrifuged to clear the lysate and the protein was quantified. […]
Comparative gel mobility shift analyses of FDs with control in vitro translated receptor complexes were performed using double stranded EcRE probes and labeled by Klenow fill using ^32P-dCTP and cold dGAT by standard methods. […] Band volumes were quantified using laser scanning densitometry.
An autoradiogram of FDs and controls treated either with control vehicle or with 1 μM of murA as ligand was made with markers indicating endodimer FD or wild type receptor-binding complex band shifts. […] FIG. 2A is a graph that quantifies endodimer-sized band volumes obtained from the autoradiogram.

[2] = biological target: T1, Drosophila melanogaster ecdysone receptor (monomeric) (Drosophila melanogaster, UniProt P34021 1-878); experiment: gel mobility shift on 32P-labelled EcRE probe, proteins translated in vitro
T1 construct: also called EcR; dmEcR
T1 sequence (looked up): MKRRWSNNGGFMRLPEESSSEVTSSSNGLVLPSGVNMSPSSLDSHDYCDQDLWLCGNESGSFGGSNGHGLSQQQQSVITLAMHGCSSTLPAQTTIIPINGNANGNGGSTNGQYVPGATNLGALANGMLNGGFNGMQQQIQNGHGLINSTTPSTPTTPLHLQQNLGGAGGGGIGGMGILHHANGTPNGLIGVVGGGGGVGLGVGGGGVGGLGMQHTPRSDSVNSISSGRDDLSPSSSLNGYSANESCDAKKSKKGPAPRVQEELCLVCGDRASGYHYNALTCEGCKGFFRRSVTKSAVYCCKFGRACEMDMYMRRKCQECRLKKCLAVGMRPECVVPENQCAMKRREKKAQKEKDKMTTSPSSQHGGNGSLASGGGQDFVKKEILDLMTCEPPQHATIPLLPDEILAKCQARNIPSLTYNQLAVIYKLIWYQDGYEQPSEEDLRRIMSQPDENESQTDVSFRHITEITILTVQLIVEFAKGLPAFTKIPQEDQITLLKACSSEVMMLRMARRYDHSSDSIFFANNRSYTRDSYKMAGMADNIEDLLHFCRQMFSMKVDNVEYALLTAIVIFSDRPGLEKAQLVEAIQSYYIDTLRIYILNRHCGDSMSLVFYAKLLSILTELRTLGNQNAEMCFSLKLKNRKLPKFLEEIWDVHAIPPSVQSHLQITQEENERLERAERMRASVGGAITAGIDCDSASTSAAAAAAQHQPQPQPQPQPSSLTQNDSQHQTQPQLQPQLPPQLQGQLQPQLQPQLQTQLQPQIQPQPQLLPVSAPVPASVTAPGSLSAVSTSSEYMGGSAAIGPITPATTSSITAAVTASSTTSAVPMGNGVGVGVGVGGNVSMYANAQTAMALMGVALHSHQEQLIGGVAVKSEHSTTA
Description: The reactions were allowed to proceed at 23° C. for 5 minutes at which time ligand or vehicle was added and the reaction allowed to continue for 20 additional minutes. Band volumes were quantified using laser scanning densitometry.

relative-fold increase in response element binding (endodimer band) resulting from ligand treatment (EcRE probe): 0.9 fold
B1: E5U: fusion protein: Drosophila EcR at amino terminus, 5 linker segments (65 amino acids), ultraspiracle protein (protein)
chain: MKRRWSNNGGFMRLPEESSSEVTSSSNGLVLPSGVNMSPSSLDSHDYCDQDLWLCGNESGSFGGSNGHGLSQQQQSVITLAMHGCSSTLPAQTTIIPINGNANGNGGSTNGQYVPGATNLGALANGMLNGGFNGMQQQIQNGHGLINSTTPSTPTTPLHLQQNLGGAGGGGIGGMGILHHANGTPNGLIGVVGGGGGVGLGVGGGGVGGLGMQHTPRSDSVNSISSGRDDLSPSSSLNGYSANESCDAKKSKKGPAPRVQEELCLVCGDRASGYHYNALTCEGCKGFFRRSVTKSAVYCCKFGRACEMDMYMRRKCQECRLKKCLAVGMRPECVVPENQCAMKRREKKAQKEKDKMTTSPSSQHGGNGSLASGGGQDFVKKEILDLMTCEPPQHATIPLLPDEILAKCQARNIPSLTYNQLAVIYKLIWYQDGYEQPSEEDLRRIMSQPDENESQTDVSFRHITEITILTVQLIVEFAKGLPAFTKIPQEDQITLLKACSSEVMMLRMARRYDHSSDSIFFANNRSYTRDSYKMAGMADNIEDLLHFCRQMFSMKVDNVEYALLTAIVIFSDRPGLEKAQLVEAIQSYYIDTLRIYILNRHCGDSMSLVFYAKLLSILTELRTLGNQNAEMCFSLKLKNRKLPKFLEEIWDVHAIPPSVQSHLQITQEENERLERAERMRASVGGAITAGIDCDSASTSAAAAAAQHQPQPQPQPQPSSLTQNDSQHQTQPQLQPQLPPQLQGQLQPQLQPQLQTQLQPQIQPQPQLLPVSAPVPASVTAPGSLSAVSTSSEYMGGSAAIGPITPATTSSITAAVTASSTTSAVPMGNGVGVGVGVGGNVSMYANAQTAMALMGVALHSHQEQLIGGVAVKSEHSTTAGPTGPGPGGGSGGGSGTGPGGGSGGGSGTGPGGGSGGGSGTGPGGGSGGGSGTGPGGGSGGGSGTMDNCDQDASFRLSHIKEEVKPDISQLNDSNNSSFSPKAESPVPFMQAMSMVHVLPGSNSASSNNNSAGDAQMAQAPNSAGGSAAAAVQQQYPPNHPLSGSKHLCSICGDRASGKHYGVYSCEGCKGFFKRTVRKDLTYACRENRNCIIDKRQRNRCQYCRYQKCLTCGMKREAVQEERQRGARNAAGRLSASGGGSSGPGSVGGSSSQGGGGGGGVSGGMGSGNGSDDFMTNSVSRDFSIERIIEAEQRAETQCGDRALTFLRVGPYSTVQPDYKGAVSALCQVVNKQLFQMVEYARMMPHFAQVPLDDQVILLKAAWIELLIANVAWCSIVSLDDGGAGGGGGGLGHDGSFERRSPGLQPQQLFLNQSFSYHRNSAIKAGVSAIFDRILSELSVKMKRLNLDRRELSCLKAIILYNPDIRGIKSRAEIEMCREKVYACLDEHCRLEHPGDDGRFAQLLLRLPALRSISLKCQDHLFLFRITSDRPLEELFLEQLEAPPPPGLAMKLE
Rel. Ind. = relative induction of individual receptor groups ([1]; +ligand (1 μM murA) versus −ligand): 1.6 fold | +Lig/E4 = luciferase activity vs. reporter only with ligand ([1]; transiently co-transfected 293 cells, 1 μM murA, relative to E4-luc reporter only): 0.62 | −Lig/E4 = luciferase activity vs. reporter only without ligand ([1]; transiently co-transfected 293 cells, without ligand, relative to E4-luc reporter only): 0.41

binding result [2]: binds
B2: human retinoid X receptor alpha (monomeric) (receptor, UniProt P19793 1-462, looked up)
chain: MDTKHFLPLDFSTQVNSSLTSPTGRGSMAAPSLHPSLGPGIGSPGQLHSPISTLSSPINGMGPPFSVISSPMGPHSMSVPTTPTLGFSTGSPQLSSPMNPVSSSEDIKPPLGLNGVLKVPAHPSGNMASFTKHICAICGDRSSGKHYGVYSCEGCKGFFKRTVRKDLTYTCRDNKDCLIDKRQRNRCQYCRYQKCLAMGMKREAVQEERQRGKDRNENEVESTSSANEDMPVERILEAELAVEPKTETYVEANMGLNPSSPNDPVTNICQAADKQLFTLVEWAKRIPHFSELPLDDQVILLRAGWNELLIASFSHRSIAVKDGILLATGLHVHRNSAHSAGVGAIFDRVLTELVSKMRDMQMDKTELGCLRAIVLFNPDSKGLSNPAEVEALREKVYASLEAYCKHKYPEQPGRFAKLLLRLPALRSIGLKCLEHLFFFKLIGDTPIDTFLMEMLEAPHQMT
notes: also called RXR; hRXR

binding result [2]: binds
B3: Drosophila melanogaster ultraspiracle protein (monomeric) (receptor, UniProt P20153 1-508, looked up)
chain: MDNCDQDASFRLSHIKEEVKPDISQLNDSNNSSFSPKAESPVPFMQAMSMVHVLPGSNSASSNNNSAGDAQMAQAPNSAGGSAAAAVQQQYPPNHPLSGSKHLCSICGDRASGKHYGVYSCEGCKGFFKRTVRKDLTYACRENRNCIIDKRQRNRCQYCRYQKCLTCGMKREAVQEERQRGARNAAGRLSASGGGSSGPGSVGGSSSQGGGGGGGVSGGMGSGNGSDDFMTNSVSRDFSIERIIEAEQRAETQCGDRALTFLRVGPYSTVQPDYKGAVSALCQVVNKQLFQMVEYARMMPHFAQVPLDDQVILLKAAWIELLIANVAWCSIVSLDDGGAGGGGGGLGHDGSFERRSPGLQPQQLFLNQSFSYHRNSAIKAGVSAIFDRILSELSVKMKRLNLDRRELSCLKAIILYNPDIRGIKSRAEIEMCREKVYACLDEHCRLEHPGDDGRFAQLLLRLPALRSISLKCQDHLFLFRITSDRPLEELFLEQLEAPPPPGLAMKLE
notes: also called Usp; dmUsp
